Data reported in patent US20180002435A1 (CELLECTIS, published 2018).
One block for each binder: values may come before it.

Biological target: T1, recombinant BCMA protein fused to an FC fragment (SEQ ID NO 151)
T1 construct: also called BCMA-Fc fusion protein
T1 chain: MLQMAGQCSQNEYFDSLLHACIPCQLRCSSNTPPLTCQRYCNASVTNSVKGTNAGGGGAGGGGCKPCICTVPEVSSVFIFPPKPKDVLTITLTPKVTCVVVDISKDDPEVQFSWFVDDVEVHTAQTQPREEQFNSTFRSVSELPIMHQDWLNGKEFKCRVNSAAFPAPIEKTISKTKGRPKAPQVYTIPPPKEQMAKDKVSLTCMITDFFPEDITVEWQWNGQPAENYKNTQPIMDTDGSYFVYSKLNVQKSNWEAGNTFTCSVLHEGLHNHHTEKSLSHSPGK
Assay: flow cytometry of CAR T cells, BCMA-Fc and PE labeled anti-FC antibody
Experimental: The CDC assay consisted in incubating 0.2 10⁶ transfected cells either alone, or in the presence of Rituximab (RTX, ROCHE, 400 ng) and Babby Rabbit Complement (BRC, AbD Serotec, ref#C12CA, 100 μL of the solution diluted according to the manufacturer protocol) for 2 hours at 37° C. in a final volume of 400 μL of Xvivo 10% FBS. At the end of incubation, anti BCMA-CAR T cells were recovered and labeled with recombinant BCMA protein fused to an FC fragment (SEQ ID NO 151) and a PE labeled anti-FC secondary monoclonal antibody (Jackson ImmunoResearch, ref#115-115-164, diluted 1/200). Cells were then recovered in PFA 4% before being analyzed by flow cytometry. The flow cytometry gating strategy was to determine the viability of anti-BCMA CAR positive T cells (PE positive cells) among the singlet found in the total population of cells. This analysis was performed on cells incubated alone and in the presence of RTX and BRC. Results are expressed as the ratio named “Relative frequency of viable cells among BCMA CAR positive T cells (with respect to control experiment)” described below: […]

B1: anti-BCMA CAR of SEQ ID NO 137 (other)
chain: GGGGSCPYSNPSLCSGGGGSGGGGSEVQLLESGGGLVQPGGSLRLSCAASGFTFSSYAMNWVRQAPGKGLEWVSAILSSGGSTYYADSVKGRFTISRDNSKNTLYLQMNSLRAEDTAVYYCARYWPMDIWGQGTLVTVSSGGSCPYSNPSLCSGGSEIVLTQSPGTLSLSPGERATLSCRGGQSVSSSYLAWYQQKPGQAPRLLMYDASIRATGIPDRFSGSGSGTDFTLTISRLEPEDFAVYYCQQYQSWPLTFGQGTKVEIKSDPGSGGGGSCPYSNPSLCSGGGGSAPTTTPAPRPPTPAPTIASQPLSLRPEACRPAAGGAVHTRGLDFACDIYIWAPLAGTCGVLLLSLVITLYCRRGRKKLLYIFKQPFMRPVQTTQEEDGCSCRFPEEEEGGCELRVKFSRSADAPAYQQGQNQLYNELNLGRREEYDVLDKRRGRDPEMGGKPRRKNPQEGLYNELQKDKMAEAYSEIGMKGERRRGKGHDGLYQGLSTATKDTYDALHMQALPPRE
notes: Single-chain CAR on primary T cells
binding result: binds

B2: anti-BCMA CAR of SEQ ID NO 133 (other)
chain: GGGGSCPYSNPSLCSGGGGSGGGGSEVQLLESGGGLVQPGGSLRLSCAASGFTFSSYAMNWVRQAPGKGLEWVSAILSSGGSTYYADSVKGRFTISRDNSKNTLYLQMNSLRAEDTAVYYCARYWPMDIWGQGTLVTVSSGGGGGSCPYSNPSLCSGGGGGSEIVLTQSPGTLSLSPGERATLSCRGGQSVSSSYLAWYQQKPGQAPRLLMYDASIRATGIPDRFSGSGSGTDFTLTISRLEPEDFAVYYCQQYQSWPLTFGQGTKVEIKSDPTTTPAPRPPTPAPTIASQPLSLRPEACRPAAGGAVHTRGLDFACDIYIWAPLAGTCGVLLLSLVITLYCRRGRKKLLYIFKQPFMRPVQTTQEEDGCSCRFPEEEEGGCELRVKFSRSADAPAYQQGQNQLYNELNLGRREEYDVLDKRRGRDPEMGGKPRRKNPQEGLYNELQKDKMAEAYSEIGMKGERRRGKGHDGLYQGLSTATKDTYDALHMQALPPRE
notes: as for B1
binding result: binds

B3: anti-BCMA CAR of SEQ ID NO 132 (other)
chain: GGGGSCPYSNPSLCSGGGGSGGGGSEVQLLESGGGLVQPGGSLRLSCAASGFTFSSYAMNWVRQAPGKGLEWVSAILSSGGSTYYADSVKGRFTISRDNSKNTLYLQMNSLRAEDTAVYYCARYWPMDIWGQGTLVTVSSGGSCPYSNPSLCSGGSEIVLTQSPGTLSLSPGERATLSCRGGQSVSSSYLAWYQQKPGQAPRLLMYDASIRATGIPDRFSGSGSGTDFTLTISRLEPEDFAVYYCQQYQSWPLTFGQGTKVEIKSDPTTTPAPRPPTPAPTIASQPLSLRPEACRPAAGGAVHTRGLDFACDIYIWAPLAGTCGVLLLSLVITLYCRRGRKKLLYIFKQPFMRPVQTTQEEDGCSCRFPEEEEGGCELRVKFSRSADAPAYQQGQNQLYNELNLGRREEYDVLDKRRGRDPEMGGKPRRKNPQEGLYNELQKDKMAEAYSEIGMKGERRRGKGHDGLYQGLSTATKDTYDALHMQALPPRE
notes: as for B1
binding result: binds

B4: anti-BCMA CAR of SEQ ID NO 138 (other)
chain: GGGGSCPYSNPSLCSGGGGSGGGGSEVQLLESGGGLVQPGGSLRLSCAASGFTFSSYAMNWVRQAPGKGLEWVSAILSSGGSTYYADSVKGRFTISRDNSKNTLYLQMNSLRAEDTAVYYCARYWPMDIWGQGTLVTVSSGGGGGSCPYSNPSLCSGGGGGSEIVLTQSPGTLSLSPGERATLSCRGGQSVSSSYLAWYQQKPGQAPRLLMYDASIRATGIPDRFSGSGSGTDFTLTISRLEPEDFAVYYCQQYQSWPLTFGQGTKVEIKSDPGSGGGGSCPYSNPSLCSGGGGSAPTTTPAPRPPTPAPTIASQPLSLRPEACRPAAGGAVHTRGLDFACDIYIWAPLAGTCGVLLLSLVITLYCRRGRKKLLYIFKQPFMRPVQTTQEEDGCSCRFPEEEEGGCELRVKFSRSADAPAYQQGQNQLYNELNLGRREEYDVLDKRRGRDPEMGGKPRRKNPQEGLYNELQKDKMAEAYSEIGMKGERRRGKGHDGLYQGLSTATKDTYDALHMQALPPRE
notes: as for B1
binding result: binds

B5: anti-BCMA CAR of SEQ ID NO 130 (other)
chain: EVQLLESGGGLVQPGGSLRLSCAASGFTFSSYAMNWVRQAPGKGLEWVSAILSSGGSTYYADSVKGRFTISRDNSKNTLYLQMNSLRAEDTAVYYCARYWPMDIWGQGTLVTVSSGGSCPYSNPSLCSGGSEIVLTQSPGTLSLSPGERATLSCRGGQSVSSSYLAWYQQKPGQAPRLLMYDASIRATGIPDRFSGSGSGTDFTLTISRLEPEDFAVYYCQQYQSWPLTFGQGTKVEIKSDPTTTPAPRPPTPAPTIASQPLSLRPEACRPAAGGAVHTRGLDFACDIYIWAPLAGTCGVLLLSLVITLYCRRGRKKLLYIFKQPFMRPVQTTQEEDGCSCRFPEEEEGGCELRVKFSRSADAPAYQQGQNQLYNELNLGRREEYDVLDKRRGRDPEMGGKPRRKNPQEGLYNELQKDKMAEAYSEIGMKGERRRGKGHDGLYQGLSTATKDTYDALHMQALPPRE
notes: as for B1
binding result: binds

B6: anti-BCMA CAR of SEQ ID NO 131 (other)
chain: EVQLLESGGGLVQPGGSLRLSCAASGFTFSSYAMNWVRQAPGKGLEWVSAILSSGGSTYYADSVKGRFTISRDNSKNTLYLQMNSLRAEDTAVYYCARYWPMDIWGQGTLVTVSSGGGGGSCPYSNPSLCSGGGGGSEIVLTQSPGTLSLSPGERATLSCRGGQSVSSSYLAWYQQKPGQAPRLLMYDASIRATGIPDRFSGSGSGTDFTLTISRLEPEDFAVYYCQQYQSWPLTFGQGTKVEIKSDPTTTPAPRPPTPAPTIASQPLSLRPEACRPAAGGAVHTRGLDFACDIYIWAPLAGTCGVLLLSLVITLYCRRGRKKLLYIFKQPFMRPVQTTQEEDGCSCRFPEEEEGGCELRVKFSRSADAPAYQQGQNQLYNELNLGRREEYDVLDKRRGRDPEMGGKPRRKNPQEGLYNELQKDKMAEAYSEIGMKGERRRGKGHDGLYQGLSTATKDTYDALHMQALPPRE
notes: as for B1
binding result: binds

The remaining lines, values ahead:

binding result: binds
B7: anti-BCMA CAR of SEQ ID NO 135 (other)
chain: EVQLLESGGGLVQPGGSLRLSCAASGFTFSSYAMNWVRQAPGKGLEWVSAILSSGGSTYYADSVKGRFTISRDNSKNTLYLQMNSLRAEDTAVYYCARYWPMDIWGQGTLVTVSSGGGGGSCPYSNPSLCSGGGGGSEIVLTQSPGTLSLSPGERATLSCRGGQSVSSSYLAWYQQKPGQAPRLLMYDASIRATGIPDRFSGSGSGTDFTLTISRLEPEDFAVYYCQQYQSWPLTFGQGTKVEIKSDPGSGGGGSCPYSNPSLCSGGGGSAPTTTPAPRPPTPAPTIASQPLSLRPEACRPAAGGAVHTRGLDFACDIYIWAPLAGTCGVLLLSLVITLYCRRGRKKLLYIFKQPFMRPVQTTQEEDGCSCRFPEEEEGGCELRVKFSRSADAPAYQQGQNQLYNELNLGRREEYDVLDKRRGRDPEMGGKPRRKNPQEGLYNELQKDKMAEAYSEIGMKGERRRGKGHDGLYQGLSTATKDTYDALHMQALPPRE
notes: as for B1

binding result: binds
B8: anti-BCMA CAR of SEQ ID NO 134 (other)
chain: EVQLLESGGGLVQPGGSLRLSCAASGFTFSSYAMNWVRQAPGKGLEWVSAILSSGGSTYYADSVKGRFTISRDNSKNTLYLQMNSLRAEDTAVYYCARYWPMDIWGQGTLVTVSSGGSCPYSNPSLCSGGSEIVLTQSPGTLSLSPGERATLSCRGGQSVSSSYLAWYQQKPGQAPRLLMYDASIRATGIPDRFSGSGSGTDFTLTISRLEPEDFAVYYCQQYQSWPLTFGQGTKVEIKSDPGSGGGGSCPYSNPSLCSGGGGSAPTTTPAPRPPTPAPTIASQPLSLRPEACRPAAGGAVHTRGLDFACDIYIWAPLAGTCGVLLLSLVITLYCRRGRKKLLYIFKQPFMRPVQTTQEEDGCSCRFPEEEEGGCELRVKFSRSADAPAYQQGQNQLYNELNLGRREEYDVLDKRRGRDPEMGGKPRRKNPQEGLYNELQKDKMAEAYSEIGMKGERRRGKGHDGLYQGLSTATKDTYDALHMQALPPRE
notes: as for B1

binding result: binds
B9: anti-BCMA CAR of SEQ ID NO 136 (other)
chain: GGGGSCPYSNPSLCSGGGGSGGGGSEVQLLESGGGLVQPGGSLRLSCAASGFTFSSYAMNWVRQAPGKGLEWVSAILSSGGSTYYADSVKGRFTISRDNSKNTLYLQMNSLRAEDTAVYYCARYWPMDIWGQGTLVTVSSGGGGSGGGGSGGGGSEIVLTQSPGTLSLSPGERATLSCRGGQSVSSSYLAWYQQKPGQAPRLLMYDASIRATGIPDRFSGSGSGTDFTLTISRLEPEDFAVYYCQQYQSWPLTFGQGTKVEIKSDPGSGGGGSCPYSNPSLCSGGGGSAPTTTPAPRPPTPAPTIASQPLSLRPEACRPAAGGAVHTRGLDFACDIYIWAPLAGTCGVLLLSLVITLYCRRGRKKLLYIFKQPFMRPVQTTQEEDGCSCRFPEEEEGGCELRVKFSRSADAPAYQQGQNQLYNELNLGRREEYDVLDKRRGRDPEMGGKPRRKNPQEGLYNELQKDKMAEAYSEIGMKGERRRGKGHDGLYQGLSTATKDTYDALHMQALPPRE
notes: as for B1
